Results: patent US20230038638A1, “COMPLEMENT FACTOR I-RELATED COMPOSITIONS AND METHODS” (published 2023)
Residue numbers refer to the chain shown, from its start. Like-named read-outs stand apart in the source and are kept apart here.

Experiments:
C4b [1] = molecular target: T1, C4b (human, UniProt P0C0L4)
T1 sequence: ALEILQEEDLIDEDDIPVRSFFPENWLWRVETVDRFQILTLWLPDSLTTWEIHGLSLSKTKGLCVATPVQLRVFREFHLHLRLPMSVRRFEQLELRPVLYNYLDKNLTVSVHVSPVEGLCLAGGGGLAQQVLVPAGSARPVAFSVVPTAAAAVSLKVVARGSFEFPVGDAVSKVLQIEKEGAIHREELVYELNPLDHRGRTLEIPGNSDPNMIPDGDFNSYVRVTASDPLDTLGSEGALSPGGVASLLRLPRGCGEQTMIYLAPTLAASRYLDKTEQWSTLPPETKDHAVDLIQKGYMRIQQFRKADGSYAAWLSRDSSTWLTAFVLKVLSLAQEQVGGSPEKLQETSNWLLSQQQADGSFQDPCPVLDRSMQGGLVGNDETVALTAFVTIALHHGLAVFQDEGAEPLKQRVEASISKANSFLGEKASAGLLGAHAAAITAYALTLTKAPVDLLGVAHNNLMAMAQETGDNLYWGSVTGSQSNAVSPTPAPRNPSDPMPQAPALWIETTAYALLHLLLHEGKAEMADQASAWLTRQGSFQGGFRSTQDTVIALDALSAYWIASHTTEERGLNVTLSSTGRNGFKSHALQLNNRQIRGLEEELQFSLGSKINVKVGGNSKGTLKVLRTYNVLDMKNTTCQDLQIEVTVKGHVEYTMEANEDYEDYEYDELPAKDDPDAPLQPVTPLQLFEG

human C4b (human) [2] = molecular target: T2, human C4b (human) (UniProt P0C0L5)
T2 sequence: T1 sequence with A151T, D317G, P364L, C365S, L368I, D369H, N420S, V451A, L454R, S530A

[3] = molecular target: soluble human C3b (human) (UniProt P01024)
C3b [4] = molecular target: T3, C3b (human, UniProt P01024)
C3b [5] = molecular target: T3, C3b; remark: listed apart in the source
C3b [6] = molecular target: T3, C3b; remark: listed apart in the source
human C4b (human) [7] = molecular target: T2, human C4b (human); remark: listed apart in the source
[8] = molecular target: soluble human C3b (human) (UniProt P01024); remark: listed apart in the source
C3b [9] = molecular target: T3, C3b; remark: listed apart in the source
[10] = molecular target: soluble human C3b (human) (UniProt P01024); remark: listed apart in the source
human C4b (human) [11] = molecular target: T4, human C4b (human) (UniProt P0C0L4)
T4 sequence: T1 sequence

[12] = molecular target: soluble human C3b (human) (UniProt P01024); remark: listed apart in the source
C3b [13] = molecular target: T3, C3b; remark: listed apart in the source
[14] = molecular target: CFI-HSA (human serum albumin fused to the N-terminal end of wild type CFI) (human)
[15] = molecular target: soluble human C3b (human) (UniProt P01024); remark: listed apart in the source
C3b [16] = molecular target: T3, C3b; remark: listed apart in the source
C4b [17] = molecular target: T1, C4b; remark: listed apart in the source
C3b [18] = molecular target: T3, C3b; test: cell-based or functional assay
C4b [19] = molecular target: T1, C4b; test: cell-based or functional assay

**Q.** Which C4c No Cofactor EC50 (C4b cleavage, C4c ELISA) (C4b [1]) does the source give for “CFI-HSA variant P535G with hCR1; CCP15; CCP16; CCP17 C-terminal fusion (enzyme)” here?
**A.** 0.161 µM

**Q.** “CFI-HSA variant Y408L; E457G; E461Q; R462K; N531G with hCR1; CCP15; CCP16; CCP17 C-terminal fusion (enzyme)” was tested. Which C4c No Cofactor EC50 (C4b cleavage, C4c ELISA) (C4b [1]) did it give?
**A.** 0.106 µM

**Q.** “CFI-HSA variant Y408L; N531G; P535G with hCR1; CCP15; CCP16; CCP17 C-terminal fusion (enzyme)” was tested. Which C4c No Cofactor EC50 (C4b cleavage, C4c ELISA) (C4b [1]) did it give?
**A.** 0.0501 µM

**Q.** Which results are given for CFI-HSA variant D425R (enzyme)?
**A.** C4b Screen Ref Fold (fold vs CFI-HSA wild type) (human C4b (human) [2]): 0.69; iC3b Screen Ref Fold (fold vs CFI-HSA wild type) [3]: 1.46; C3b cleavage, % Activity (C3b [4]): 104%; C3b cleavage rate, kmut/kwt (C3b [5]): 2; C3dg formation in activated human serum (TRIFMA), EC50 WT/EC50Variant (C3b [6]): 4.2

**Q.** “CFI-HSA variant N531G; P535A with hCR1; CCP15; CCP16; CCP17 C-terminal fusion (enzyme)” was tested. Which C4c No Cofactor EC50 (C4b cleavage, C4c ELISA) (C4b [1]) did it give?
**A.** 0.0503 µM

**Q.** For “CFI-HSA variant Y408L; E457G; R462K; F464Y; N531G with hCR1; CCP15; CCP16; CCP17 C-terminal fusion (enzyme)”, which C4c No Cofactor EC50 (C4b cleavage, C4c ELISA) (C4b [1]) is on record?
**A.** 0.104 µM

**Q.** With “CFI-HSA variant E457G; P535G with hCR1; CCP15; CCP16; CCP17 C-terminal fusion (enzyme)” as the molecule, how does the C4c No Cofactor EC50 (C4b cleavage, C4c ELISA) (C4b [1]) read?
**A.** 0.0359 µM

**Q.** With “CFI-HSA (human serum albumin fused to the N-terminal end of wild type CFI) (enzyme)” as the molecule, how does the C4b cleavage EC50 (human C4b (human) [7]) read?
**A.** 0.365 µM

**Q.** And the C3b cleavage EC50 [8]?
**A.** 0.0255 µM

**Q.** Which C3b cleavage, % Activity (C3b [4]) does the source give for CFI-HSA variant Y408L + N531G (enzyme) here?
**A.** 123%

**Q.** What about the C3b cleavage rate, kmut/kwt (C3b [5]) of the same molecule?
**A.** 3

**Q.** And the C3dg formation in activated human serum (TRIFMA), EC50 WT/EC50Variant (C3b [6])?
**A.** 0.6

**Q.** Which C4c No Cofactor EC50 (C4b cleavage, C4c ELISA) (C4b [1]) does the source give for “CFI-HSA variant Y408L; E457G; N531G with hCR1; CCP15; CCP16; CCP17 C-terminal fusion (enzyme)” here?
**A.** 0.156 µM

**Q.** What does the source list for “HSA + CfI + GGSSGG (SEQ ID NO: 6) + CR1(ccp15-17) (enzyme)”?
**A.** C3c No Cofactor EC50 (C3b cleavage, iC3b ELISA) (C3b [9]): 0.0337 µM; C4c No Cofactor EC50 (C4b cleavage, C4c ELISA) (C4b [1]): 0.0635 µM

**Q.** How did the C4c No Cofactor EC50 (C4b cleavage, C4c ELISA) (C4b [1]) turn out when “CFI-HSA variant E457G; E461Q; N531G with hCR1; CCP15; CCP16; CCP17 C-terminal fusion (enzyme)” was run?
**A.** 0.0776 µM

**Q.** “CFI-HSA (E416A; D425R; E457G; N531G variant) (enzyme)” was tested. Which Fold-decrease EC50 (iC3b) vs. CFI WT [10] did it give?
**A.** 8.03 fold

**Q.** How did the Fold-decrease EC50 (iC3b) vs. CFI WT [10] turn out when CFI-HSA (E416A; N531G variant) (enzyme) was run?
**A.** 3.67 fold

**Q.** How did the C4c No Cofactor EC50 (C4b cleavage, C4c ELISA) (C4b [1]) turn out when “CFI-HSA variant Y408L; E457G; N531G; P535G with hCR1; CCP15; CCP16; CCP17 C-terminal fusion (enzyme)” was run?
**A.** 0.0977 µM

**Q.** “CFI-HSA variant N531G with hCR1; CCP15; CCP16; CCP17 C-terminal fusion (enzyme)” was tested. Which C4c No Cofactor EC50 (C4b cleavage, C4c ELISA) (C4b [1]) did it give?
**A.** 0.0762 µM

**Q.** For “CFI-HSA (hCR1; CCP15; CCP16; CCP17 C-terminal fusion) (enzyme)”, which Fold-decrease EC50 (iC3b) vs. CFI WT [10] is on record?
**A.** 0.79 fold

**Q.** Which results are given for CFI-HSA variant R557A (enzyme)?
**A.** C4b Screen Ref Fold (fold relative to CFI-HSA wild type) (human C4b (human) [2]): 1.72; C4b Screen Ref Fold (fold vs CFI-HSA wild type) (human C4b (human) [2]): 1.74; iC3b Screen Ref Fold (fold relative to CFI-HSA wild type) [3]: -0.01; iC3b Screen Ref Fold (fold vs CFI-HSA wild type) [3]: 0.04; C4c EC50 (nM) (human C4b (human) [11]): 327 nM; iC3b EC50 [12]: > 0.5 µM; C3b cleavage, % Activity (C3b [4]): 21%; C3b cleavage rate, kmut/kwt (C3b [5]): 0

**Q.** Which C4c No Cofactor EC50 (C4b cleavage, C4c ELISA) (C4b [1]) does the source give for “CFI-HSA variant E457G; N531G; P535G with hCR1; CCP15; CCP16; CCP17 C-terminal fusion (enzyme)” here?
**A.** 0.0448 µM

**Q.** How did the C3b cleavage, % Activity (C3b [4]) turn out when CFI-HSA variant N531G + P535A (enzyme) was run?
**A.** 120%

**Q.** What about the C3b cleavage rate, kmut/kwt (C3b [5]) of the same molecule?
**A.** 3

**Q.** What about the C3dg formation in activated human serum (TRIFMA), EC50 WT/EC50Variant (C3b [6]) of the same molecule?
**A.** 26.2

**Q.** What about the C3dg formation (TRIFMA), EC50 against wild type (FIG. 10) (C3b [13]) of the same molecule?
**A.** 18 fold

**Q.** “recombinant human furin (from UniProt P09958) (enzyme)” was tested. Which activation (cleavage) of CFI-HSA by furin [14] did it give?
**A.** > 90%

**Q.** With “CFI-HSA (human serum albumin fused to the N-terminal end of wild type CFI)” as the molecule, how does the C3b-enriched AP hemolytic assay IC50 [15] read?
**A.** 0.0264 µM

**Q.** How did the C4c No Cofactor EC50 (C4b cleavage, C4c ELISA) (C4b [1]) turn out when “CFI-HSA variant Y408L; N531G with hCR1; CCP15; CCP16; CCP17 C-terminal fusion (enzyme)” was run?
**A.** 0.0571 µM

**Q.** CFI-HSA (E457G; N531G variant) (enzyme) was tested. Which Fold-decrease EC50 (iC3b) vs. CFI WT [10] did it give?
**A.** 3.86 fold

**Q.** For “CFI-HSA variant E457G + CR1(CCP1-3) (from UniProt P17927) (enzyme)”, which AP IC50, alternative pathway hemolysis (C3b [16]) is on record?
**A.** 0.086 µM

**Q.** What about the CP IC50, classical pathway hemolysis of sensitised sheep red cells (C4b [17]) of the same molecule?
**A.** 0.122 µM

**Q.** For CFI-HSA variant D425A (enzyme), which C4b Screen Ref Fold (fold vs CFI-HSA wild type) (human C4b (human) [2]) is on record?
**A.** 2.71

**Q.** What about the iC3b Screen Ref Fold (fold vs CFI-HSA wild type) [3] of the same molecule?
**A.** 1.07

**Q.** And the C3b cleavage, % Activity (C3b [4])?
**A.** 103%

**Q.** What about the C3b cleavage rate, kmut/kwt (C3b [5]) of the same molecule?
**A.** 1

**Q.** And the C3dg formation in activated human serum (TRIFMA), EC50 WT/EC50Variant (C3b [6])?
**A.** 1.7

**Q.** What does the source list for CFI-HSA variant L307G (enzyme)?
**A.** C4b Screen Ref Fold (fold vs CFI-HSA wild type) (human C4b (human) [2]): 2.85; iC3b Screen Ref Fold (fold vs CFI-HSA wild type) [3]: 0.79; C4c EC50 (nM) (human C4b (human) [11]): 316 nM; iC3b EC50 [12]: 0.0392 µM; C3b cleavage, % Activity (C3b [4]): 91%; C3b cleavage rate, kmut/kwt (C3b [5]): 1

B1: Plasma derived, wild type human CFI (enzyme)
chain: KVTYTSQEDLVEKKCLAKKYTHLSCDKVFCQPWQRCIEGTCVCKLPYQCPKNGTAVCATNRRSFPTYCQQKSLECLHPGTKFLNNGTCTAEGKFSVSLKHGNTDSEGIVEVKLVDQDKTMFICKSSWSMREANVACLDLGFQQGADTQRRFKLSDLSINSTECLHVHCRGLETSLAECTFTKRRTMGYQDFADVVCYTQKADSPMDDFFQCVNGKYISQMKACDGINDCGDQSDELCCKACQGKGFHCKSGVCIPSQYQCNGEVDCITGEDEVGCAGFASVTQEETEILTADMDAERRRIKSLLPKLSCGVKNRMHIRRKRIVGGKRAQLGDLPWQVAIKDASGITCGGIYIGGCWILTAAHCLRASKTHRYQIWTTVVDWIHPDLKRIVIEYVDRIIFHENYNAGTYQNDIALIEMKKDGNKKDCELPRSIPACVPWSPYLFQPNDTCIVSGWGREKDNERVFSLQWGEVKLISNCSKFYGNRFYEKEMECAGTYDGSIDACKGDSGGPLVCMDANNVTYVWGVVSWGENCGKPEFPGVYTKVANYFDWISYHVGRPFISQYNV
**Q.** Which results are given for B1?
**A.** C4b cleavage EC50 (human C4b (human) [7]): 0.385 µM; C3b cleavage EC50 [8]: 0.0253 µM; C3b-enriched AP hemolytic assay IC50 [15]: 0.0129 µM; AP IC50, alternative pathway hemolysis (C3b [18]): 0.00605 µM; CP IC50, classical pathway hemolysis of sensitised sheep red cells (C4b [19]): 0.135 µM
